From patent US20180243437A1 (published 2018)

B5: human VEGFR-2/Fc (R&D Systems) (Fc fusion)
chain: ASVGLPSVSLDLPRLSIQKDILTIKANTTLQITCRGQRDLDWLWPNNQSGSEQRVEVTECSDGLFCKTLTIPKVIGNDTGAYKCFYRETDLASVIYVYVQDYRSPFIASVSDQHGVVYITENKNKTVVIPCLGSISNLNVSLCARYPEKRFVPDGNRISWDSKKGFTIPSYMISYAGMVFCEAKINDESYQSIMYIVVVVGYRIYDVVLSPSHGIELSVGEKLVLNCTARTELNVGIDFNWEYPSSKHQHKKLVNRDLKTQSGSEMKKFLSTLTIDGVTRSDQGLYTCAASSGLMTKKNSTFVRVHEKPFVAFGSGMESLVEATVGERVRIPAKYLGYPPPEIKWYKNGIPLESNHTIKAGHVLTIMEVSERDTGNYTVILTNPISKEKQSHVVSLVVYVPPQIGEKSLISPVDSYQYGTTQTLTCTVYAIPPPHHIHWYWQLEEECANEPSQAVSVTNPYPCEEWRSVEDFQGGNKIEVNKNQFALIEGKNKTVSTLVIQAANVSALYKCEAVNKVGRGERVISFHVTRGPEITLQPDMQPTEQESVSLWCTADRSTFENLTWYKLGPQPLPIHVGELPTPVCKNLDTLWKLNATMFSNSTNDILIMELKNASLQDQGDYVCLAQDRKTKKRHCVVRQLTVLERVAPTITGNLENQTTSIGESIEVSCTASGNPPPQIMWFKDNETLVEDSGIVLKDGNRNLTIRRVRKEDEGLYTCQACSVLGCAKVEAFFIIEGAQEKTNLE
notes: Bought protein; also called recombinant VEGFR2/Fc; not shown: Fc part; It is captured by goat anti-human IgG-Fc in the ELISA

Experiments:
[1] = target: T1, human VEGFR2 (KDR) expressed on 293/KDR cells (human, UniProt P35968 20-1356); test: flow cytometry on 293/KDR cells, S/N against biotin-isotype control
[2] = target: B5; test: ELISA, captured recombinant VEGFR2/Fc, biotin-V21H4 (FIG. 13A); antibody alone, not conjugate
[3] = target: T1, human VEGFR2 (KDR) expressed on 293/KDR …; test: flow cytometry on 293/KDR cells (FIG. 13B)
[4] = target: B5; test: ELISA on recombinant VEGFR2/Fc, absorbance at 405 nm
[5] = target: T2, mouse VEGFR-2/Fc (R&D Systems) (mouse, UniProt P35918 20-762); test: SPR (Biacore 3000), immobilized mouse VEGFR-2/Fc
T2 construct: Bought protein; also called immobilized mouse VEGFR-2/Fc; not shown: Fc part, not described

[6] = target: B5; test: SPR (Biacore 3000), immobilized human VEGFR-2/Fc; estimated from transformed data (FIG. 3)
[7] = target: B5; test: SPR (Biacore 3000), immobilized human VEGFR-2/Fc
[8] = target: T3, AB2-(SEQ ID NO:13) DOS47 antibody-urease conjugate (jack bean (Canavalia ensiformis), UniProt P07374 1-840, cross-linked to the antibody; sites not stated; chemically cross-linked to urease; cross-linker and sites not stated for this conjugate); test: ELISA on VEGFR2/Fc captured by anti-human IgG-Fc, conjugate detected with anti-urease [panel AB2-DOS47]
T3 construct: Antibody-enzyme conjugate; also called AB2-DOS47

[9] = target: T4, AB1-(SEQ ID NO:9) DOS47 antibody-urease conjugate (jack bean (Canavalia ensiformis), UniProt P07374 1-840, cross-linked to the antibody; sites not stated; chemically cross-linked to urease; cross-linker and sites not stated for this conjugate); test: ELISA on VEGFR2/Fc captured by anti-human IgG-Fc, conjugate detected with anti-urease [panel AB1-DOS47]
T4 construct: Antibody-enzyme conjugate; also called AB1-DOS47

[10] = target: T5, AB4-(SEQ ID NO:27) DOS47 antibody-urease conjugate (jack bean (Canavalia ensiformis), UniProt P07374 1-840, cross-linked to the antibody; sites not stated; chemically cross-linked to urease; cross-linker and sites not stated for this conjugate); test: ELISA on VEGFR2/Fc captured by anti-human IgG-Fc, conjugate detected with anti-urease [panel AB4-DOS47]
T5 construct: Antibody-enzyme conjugate; also called AB4-DOS47

[11] = target: T6, V21H4-DOS47 with 1.4 antibodies per urease (jack bean (Canavalia ensiformis), UniProt P07374 1-840, surface cysteines partly linked through BM(PEG)2 to C136 of V21H4; C136 linked through BM(PEG)2 to a urease cysteine); test: ELISA on recombinant VEGFR2/Fc, absorbance at 405 nm, V21H4-DOS47 at different antibody/urease ratios
T6 construct: The conjugation ratio is an average value from SDS-PAGE

[12] = target: T7, V21H4-DOS47 with 3.3 antibodies per urease (jack bean (Canavalia ensiformis), UniProt P07374 1-840, surface cysteines partly linked through BM(PEG)2 to C136 of V21H4; C136 linked through BM(PEG)2 to a urease cysteine); test: as above
T7 construct: The conjugation ratio is an average value from SDS-PAGE

[13] = target: T8, V21H4-DOS47 with 2.3 antibodies per urease (jack bean (Canavalia ensiformis), UniProt P07374 1-840, surface cysteines partly linked through BM(PEG)2 to C136 of V21H4; C136 linked through BM(PEG)2 to a urease cysteine); test: as above
T8 construct: The conjugation ratio is an average value from SDS-PAGE

[14] = target: T9, V21H4-DOS47 with 9.4 antibodies per urease (jack bean (Canavalia ensiformis), UniProt P07374 1-840, surface cysteines partly linked through BM(PEG)2 to C136 of V21H4; C136 linked through BM(PEG)2 to a urease cysteine); test: as above
T9 construct: The conjugation ratio is an average value from SDS-PAGE

[15] = target: V21H4-DOS47 (V21H4, SEQ ID NO:6, conjugated to jack bean urease through BM(PEG)2) (jack bean (Canavalia ensiformis), UniProt P07374 1-840, C824, C663, C59 and C207 partly linked through BM(PEG)2 to C136 of V21H4; C136 linked through BM(PEG)2 to a urease cysteine); test: ELISA on recombinant VEGFR2/Fc, absorbance at 405 nm
[16] = target: V21H1-DOS47 (V21H1, SEQ ID NO:3, conjugated to jack bean urease through SM(PEG)2) (jack bean (Canavalia ensiformis), UniProt P07374 1-840, surface cysteines linked through SM(PEG)2 to the antibody; primary amines linked through SM(PEG)2 to urease cysteines; K66 in CDR2 was about 25% of the activated antibody); test: as above
Chain of V21H1-DOS47 (V21H1, SEQ ID NO:3, conjugated to jack bean urease through SM(PEG)2) (VHH, as listed by the source limits assumed, chain 1 of 2): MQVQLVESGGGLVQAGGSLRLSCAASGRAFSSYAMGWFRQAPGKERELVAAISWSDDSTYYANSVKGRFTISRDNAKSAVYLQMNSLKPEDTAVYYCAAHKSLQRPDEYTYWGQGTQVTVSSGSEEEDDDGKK
Chain of V21H1-DOS47 (V21H1, SEQ ID NO:3, conjugated to jack bean urease through SM(PEG)2) (P07374 whole entry, chain 2 of 2): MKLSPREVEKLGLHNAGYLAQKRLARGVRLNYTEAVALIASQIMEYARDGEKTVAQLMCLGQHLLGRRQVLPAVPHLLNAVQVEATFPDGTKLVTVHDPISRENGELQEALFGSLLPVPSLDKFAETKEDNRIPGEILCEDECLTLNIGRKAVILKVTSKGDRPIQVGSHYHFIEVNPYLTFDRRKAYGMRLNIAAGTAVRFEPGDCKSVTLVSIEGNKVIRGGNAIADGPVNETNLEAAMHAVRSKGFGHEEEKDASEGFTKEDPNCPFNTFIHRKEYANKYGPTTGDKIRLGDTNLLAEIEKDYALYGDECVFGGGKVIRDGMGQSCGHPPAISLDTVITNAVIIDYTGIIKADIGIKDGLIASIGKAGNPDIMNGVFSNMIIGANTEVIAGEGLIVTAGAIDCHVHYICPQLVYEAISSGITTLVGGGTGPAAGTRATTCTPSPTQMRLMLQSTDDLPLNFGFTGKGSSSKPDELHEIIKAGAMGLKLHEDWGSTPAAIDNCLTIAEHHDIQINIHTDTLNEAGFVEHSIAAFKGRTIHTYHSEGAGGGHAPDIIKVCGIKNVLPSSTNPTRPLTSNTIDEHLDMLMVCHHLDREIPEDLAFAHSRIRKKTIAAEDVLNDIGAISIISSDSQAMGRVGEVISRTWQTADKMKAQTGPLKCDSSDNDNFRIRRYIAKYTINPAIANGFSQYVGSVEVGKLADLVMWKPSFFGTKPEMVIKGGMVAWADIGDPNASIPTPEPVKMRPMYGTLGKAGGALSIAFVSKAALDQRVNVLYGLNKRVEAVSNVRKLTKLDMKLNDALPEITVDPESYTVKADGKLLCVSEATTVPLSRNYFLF

T2 sequence (P35918 20-762 limits assumed): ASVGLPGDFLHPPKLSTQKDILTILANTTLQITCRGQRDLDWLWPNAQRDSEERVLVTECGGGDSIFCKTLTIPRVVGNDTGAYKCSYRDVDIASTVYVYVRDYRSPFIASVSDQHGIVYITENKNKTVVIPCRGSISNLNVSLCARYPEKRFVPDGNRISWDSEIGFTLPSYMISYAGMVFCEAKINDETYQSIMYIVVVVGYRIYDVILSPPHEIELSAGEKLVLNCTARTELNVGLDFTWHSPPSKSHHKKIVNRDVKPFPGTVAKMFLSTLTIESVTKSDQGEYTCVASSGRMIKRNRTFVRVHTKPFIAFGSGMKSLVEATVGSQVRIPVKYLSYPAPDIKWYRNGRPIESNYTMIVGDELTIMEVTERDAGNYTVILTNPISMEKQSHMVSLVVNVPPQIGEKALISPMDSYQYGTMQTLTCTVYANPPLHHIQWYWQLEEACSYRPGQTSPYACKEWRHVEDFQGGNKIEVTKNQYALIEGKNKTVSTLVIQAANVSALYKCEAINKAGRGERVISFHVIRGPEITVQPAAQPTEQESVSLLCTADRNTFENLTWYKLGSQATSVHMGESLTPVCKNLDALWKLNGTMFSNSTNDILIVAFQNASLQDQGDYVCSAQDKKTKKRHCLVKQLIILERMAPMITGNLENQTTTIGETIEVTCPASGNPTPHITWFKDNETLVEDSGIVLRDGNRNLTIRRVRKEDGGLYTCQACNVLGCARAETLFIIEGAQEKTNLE
T7 sequence (VHH, as listed by the source limits assumed, chain 1 of 2): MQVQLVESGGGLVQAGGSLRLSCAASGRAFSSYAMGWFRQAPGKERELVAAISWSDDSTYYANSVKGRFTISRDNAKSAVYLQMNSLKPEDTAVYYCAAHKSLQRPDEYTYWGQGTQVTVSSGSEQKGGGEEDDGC
T7 sequence (P07374 whole entry, chain 2 of 2): as the sequence (P07374 whole entry, chain 2 of 2) above
T8 sequence (P07374 whole entry, chain 2 of 2): as above
T6 sequence (P07374 whole entry, chain 2 of 2): as above
Chain of V21H4-DOS47 (V21H4, SEQ ID NO:6, conjugated to jack bean urease through BM(PEG)2) (P07374 whole entry, chain 2 of 2): as above
T9 sequence (P07374 whole entry, chain 2 of 2): as above
T4 sequence (VHH, as listed by the source limits assumed, chain 1 of 2): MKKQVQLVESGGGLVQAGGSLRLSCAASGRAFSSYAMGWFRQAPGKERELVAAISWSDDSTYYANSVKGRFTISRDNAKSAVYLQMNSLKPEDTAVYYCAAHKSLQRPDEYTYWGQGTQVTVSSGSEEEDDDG
T4 sequence (P07374 whole entry, chain 2 of 2): as the sequence (P07374 whole entry, chain 2 of 2) above
T5 sequence (VHH, as listed by the source limits assumed, chain 1 of 2): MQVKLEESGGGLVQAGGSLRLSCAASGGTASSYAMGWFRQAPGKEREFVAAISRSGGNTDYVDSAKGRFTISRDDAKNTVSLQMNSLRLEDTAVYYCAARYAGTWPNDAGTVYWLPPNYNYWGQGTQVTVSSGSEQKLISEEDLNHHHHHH
T5 sequence (P07374 whole entry, chain 2 of 2): as the sequence (P07374 whole entry, chain 2 of 2) above
T3 sequence (VH, as listed by the source limits assumed, chain 1 of 2): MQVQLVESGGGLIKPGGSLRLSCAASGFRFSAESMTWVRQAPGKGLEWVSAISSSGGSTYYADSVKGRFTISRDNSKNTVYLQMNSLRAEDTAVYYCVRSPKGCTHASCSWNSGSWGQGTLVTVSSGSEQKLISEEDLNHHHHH
T3 sequence (P07374 whole entry, chain 2 of 2): as the sequence (P07374 whole entry, chain 2 of 2) above

B1: biotin-V21H4 (SEQ ID NO:6) (VHH)
VHH: QVQLVESGGGLVQAGGSLRLSCAASGRAFSSYAMGWFRQAPGKERELVAAISWSDDSTYYANSVKGRFTISRDNAKSAVYLQMNSLKPEDTAVYYCAAHKSLQRPDEYTYWGQGTQVTVSS
modifications: biotinylated (site not stated)
notes: The biotinylation method is not described; also called V21H4 antibody
Q: For B1, which “EC50 (read off the curve)” value [1] is on record?
A: ~2 nM

Q: What about the EC50 [2] of the same binder?
A: 1.8 nM

Q: And the EC50 [3]?
A: 1.6 nM

Q: And the “EC50 (read off the curve)” value [4]?
A: ~2 nM

B2: AB1 with linker 2 (SEQ ID NO:7) (VHH)
VHH: QVQLVESGGGLVQAGGSLRLSCAASGRAFSSYAMGWFRQAPGKERELVAAISWSDDSTYYANSVKGRFTISRDNAKSAVYLQMNSLKPEDTAVYYCAAHKSLQRPDEYTYWGQGTQVTVSS
notes: Llama single domain antibody expressed in E. coli BL21(DE3); The monomer fraction from Superdex 75 was used for SPR; also called VR2-21
Q: Does B2 bind [5]?
A: no binding (tested: 150˜200 nM)

Q: What about the Kd [6] of the same binder?
A: ~80 nM

Q: And the koff [6]?
A: < 0.01 s⁻¹

Q: What about the kon [6] of the same binder?
A: ~60000 M⁻¹ s⁻¹

B3: AB2 with linker 2 (SEQ ID NO:13) (antibody, V domains shown)
VH: QVQLVESGGGLIKPGGSLRLSCAASGFRFSAESMTWVRQAPGKGLEWVSAISSSGGSTYYADSVKGRFTISRDNSKNTVYLQMNSLRAEDTAVYYCVRSPKGCTHASCSWNSGSWGQGTLVTVSS
notes: Single domain antibody on a human VH scaffold, from a human VH library, expressed in E. coli; also called VR2-801-18
Q: What does the source list for B3?
A: Kd [7]: 500 nM; koff [7]: 0.02 s⁻¹; kon [7]: 46000 M⁻¹ s⁻¹; binding result [5]: no binding (tested: 150˜200 nM)

B4: AB3 with linker 2 (SEQ ID NO:21) (antibody, V domains shown)
VH: QVQLVESGGGLIKPGGSLRLSCAASGDMLSYDVMSWVRQAPGKGLEWVSAISSSGGSTYYADSVKGRFTISRDNSKNTVYLQMNSLRAEDTAVYYCVAAPWRCTHDNCSKTRASWGQGTMVTVSS
notes: Single domain antibody on a human VH scaffold, expressed in E. coli; also called VR2-801-45
Q: Which results are given for B4?
A: Kd [7]: 900 nM; koff [7]: 0.045 s⁻¹; kon [7]: 53000 M⁻¹ s⁻¹; binding result [5]: no binding (tested: 150˜200 nM)

Q: Does B5 bind [8]?
A: binds

Q: Does B5 bind [9]?
A: binds

Q: Does B5 bind [10]?
A: binds

Q: Does B5 bind [11]?
A: binds

Q: Does B5 bind [12]?
A: binds

Q: Does B5 bind [13]?
A: binds

Q: Does B5 bind [14]?
A: binds

Q: Does B5 bind [15]?
A: binds

Q: Does B5 bind [16]?
A: binds

B6: AB4 with linker 2 (SEQ ID NO:27) (VHH)
VHH: QVKLEESGGGLVQAGGSLRLSCAASGGTASSYAMGWFRQAPGKEREFVAAISRSGGNTDYVDSAKGRFTISRDDAKNTVSLQMNSLRLEDTAVYYCAARYAGTWPNDAGTVYWLPPNYNYWGQGTQVTVSS
notes: Llama single domain antibody expressed in E. coli; also called VR2-38
Q: For B6, which Kd [7] is on record?
A: 80 nM

Q: Does B6 bind [5]?
A: no binding (tested: 150˜200 nM)
